In patent US20090285803A1 (published 2009):

T1: Nogo Receptor (human, UniProt Q9BZR6 27-447)
T1 construct: whole, on cells; also called NgR; NgR1
T1 sequence (looked up): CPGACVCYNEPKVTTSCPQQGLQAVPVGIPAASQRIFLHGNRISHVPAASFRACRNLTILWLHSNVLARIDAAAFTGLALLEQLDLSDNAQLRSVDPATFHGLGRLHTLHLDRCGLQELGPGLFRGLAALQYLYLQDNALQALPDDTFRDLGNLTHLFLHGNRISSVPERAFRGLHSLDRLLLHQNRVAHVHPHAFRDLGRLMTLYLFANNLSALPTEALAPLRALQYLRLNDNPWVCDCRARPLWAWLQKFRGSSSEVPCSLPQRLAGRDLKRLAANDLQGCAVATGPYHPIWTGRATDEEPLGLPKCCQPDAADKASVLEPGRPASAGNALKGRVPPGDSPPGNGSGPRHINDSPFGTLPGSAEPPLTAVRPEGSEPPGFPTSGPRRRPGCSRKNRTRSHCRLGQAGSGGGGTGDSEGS

B1: Homo sapiens leukocyte immunoglobulin-like receptor, subfamily B (with TM and ITIM domains), member 2 (LILRB2) (receptor)
chain: QTGTIPKPTLWAEPDSVITQGSPVTLSCQGSLEAQEYRLYREKKSASWITRIRPELVKNGQFHIPSITWEHTGRYGCQYYSRARWSELSDPLVLVMTGAYPKPTLSAQPSPVVTSGGRVTLQCESQVAFGGFILCKEGEDEHPQCLNSQPHARGSSRAIFSVGPVSPNRRWSHRCYGYDLNSPYVWSSPSDLLELLVPGVSKKPSLSVQPGPVVAPGESLTLQCVSDVGYDRFVLYKEGERDLRQLPGRQPQAGLSQANFTLGPVSRSYGGQYRCYGAYNLSSEWSAPSDPLDILITGQIHGTPFISVQPGPTVASGENVTLLCQSWRQFHTFLLTKAGAADAPLRLRSIHEYPKYQAEFPMSPVTSAHAGTYRCYGSLNSDPYLLSHPSEPLELVVSGPSMGSSPPPTGPISTPAGPEDQPLTPTGSDPQSGLGRHLGVVIGILVAVVLLLLLLLLLFLILRHRRQGKHWTSTQRKADFQHPAGAVGPEPTDRGLQWRSSPAADAQEENLYAAVKDTQPEDGVEMDTRAAASEAPQDVTYAQLHSLTLRRKATEPPPSQEREPPAEPSIYATLAIH
notes: Full-length human cDNA clone expressed in COS7 cells; also called MIG10; ILT4
B2: AP-Nogo66 (ligand, UniProt Q9NQC3 1055-1120, looked up)
chain: RIYKGVIQAIQKSDEGHPFRAYLESEVAISEELVQKYSNSALGHVNCTIKELRRLFLVDDLVDSLK
notes: Produced in conditioned medium of 293 cells; also called Alkaline Phosphatase-Nogo66 fusion; not shown: Alkaline Phosphatase (AP)

Legend:
AP-Nogo66 = target: B2; assay: expression cloning; AP-fusion bait (20-50 nM) on transfected COS7 cells, chromogenic AP staining
From the text: (§1) To identify novel receptors for inhibitory myelin proteins, an expression cloning approach was taken. As bait, constructs were generated that fused Alkaline Phosphatase (AP) to the N- and/or C-terminus of the following characterized myelin inhibitors (human cDNA used): Nogo66, two additional inhibitory domains of NogoA (NiRD2 and NiG20) (Oertle T, J Neurosci. 2003, 23(13): 5393-406), MAG, and OMgp. These constructs were transfected into 293 cells to produce conditioned medium (in DMEM/2% FBS) containing the bait proteins. The cDNA library used in the screen was comprised of full-length human cDNA clones in expression-ready vectors generated by Origene. These cDNAs were compiled, arrayed, and pooled. Pools of approximately 100 cDNA's were transiently transfected into COS7 cells.
(§2) In particular, on Day 1, COS7 cells were plated at a density of 85, 000 cells per well in 12-well plates. On Day 2, 1 mg of pooled cDNA's were transfected per well using the lipid-based transfection reagent FuGENE 6 (Roche). On Day 4, screening was performed. […] The cells were washed once in AP Buffer (100 mM NaCl, 5 mM MgCl₂, 100 mM Tris pH 9.5), and incubated in chromogenic substrate (Western Blue, Promega), and analyzed for presence of reaction product one hour after incubation, and again after overnight incubation. […]

Nogo Receptor = target: T1, Nogo Receptor; assay: as above
From the text: as §1, §2

binding result (AP-Nogo66)	binding result (Nogo Receptor)	Binder
binds	–	B1
–	binds	B2
